The text below walks through data of patent publication US20140341881A1.

Assay [1] deals with human neutrophil elastase (HNE) (human) (UniProt P08246). The assay can be described thus: cell-based or functional assay.
Assay [2] addresses human plasma kallikrein (PK) (human) (UniProt P03952). In words: cell-based or functional assay.

human plasma kallikrein (PK) (human), sequence (P03952 20-638 limits assumed): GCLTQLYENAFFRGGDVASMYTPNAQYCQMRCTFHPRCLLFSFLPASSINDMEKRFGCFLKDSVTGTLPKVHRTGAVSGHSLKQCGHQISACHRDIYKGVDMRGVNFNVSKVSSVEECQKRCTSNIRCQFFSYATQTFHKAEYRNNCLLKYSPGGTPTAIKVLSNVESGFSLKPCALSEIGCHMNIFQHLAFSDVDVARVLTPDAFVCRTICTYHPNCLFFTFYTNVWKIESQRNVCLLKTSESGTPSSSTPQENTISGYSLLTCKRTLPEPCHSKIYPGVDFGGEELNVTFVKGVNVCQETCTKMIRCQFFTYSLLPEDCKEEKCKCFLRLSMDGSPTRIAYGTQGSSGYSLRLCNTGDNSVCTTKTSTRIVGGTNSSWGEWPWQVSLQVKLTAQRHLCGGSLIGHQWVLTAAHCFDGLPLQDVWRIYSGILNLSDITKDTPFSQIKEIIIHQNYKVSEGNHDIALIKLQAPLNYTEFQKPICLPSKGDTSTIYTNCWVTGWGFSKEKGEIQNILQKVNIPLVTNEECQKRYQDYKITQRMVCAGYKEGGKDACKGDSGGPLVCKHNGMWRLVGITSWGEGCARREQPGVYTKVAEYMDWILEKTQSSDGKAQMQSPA
human neutrophil elastase (HNE) (human), sequence (P08246 30-247 limits assumed): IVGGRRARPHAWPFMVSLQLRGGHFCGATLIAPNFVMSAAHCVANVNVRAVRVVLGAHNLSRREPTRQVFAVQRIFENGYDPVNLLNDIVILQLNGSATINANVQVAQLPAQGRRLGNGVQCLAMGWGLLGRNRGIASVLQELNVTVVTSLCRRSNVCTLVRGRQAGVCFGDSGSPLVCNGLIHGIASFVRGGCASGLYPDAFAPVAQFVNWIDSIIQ

In assay [1], “rACTWT (recombinant wild type alpha-1-antichymotrypsin) (from UniProt P01011 24-423)” returned a % Inhibition of 26%, an INHIBITION % of 15% and a Percentage inhibition of 16%. In assay [2], this substance returned a % Inhibition of 46%, an INHIBITION % of 0% and a Percentage inhibition of 46%.

A word on the % Inhibition: it is the change of the read-out against control, counted positive when it falls. A lower % Inhibition goes with a weak effect.
